Experimental data published in patent US20250297004A1, “NECTIN-4 BINDING AGENTS” (INNATE PHARMA, priority 2022, published 2025).
Positions count from the first letter of the chain named.

T1: human Nectin-4 Mutant 8 (T190A/T191Q/S193A) (Homo sapiens, UniProt Q96NY8, S193A/T190A/T191Q)
T1 construct: expressed in transfected cells; host or cells: HEK293T
T1 sequence (Q96NY8 32-510 T190A/T191Q/S193A): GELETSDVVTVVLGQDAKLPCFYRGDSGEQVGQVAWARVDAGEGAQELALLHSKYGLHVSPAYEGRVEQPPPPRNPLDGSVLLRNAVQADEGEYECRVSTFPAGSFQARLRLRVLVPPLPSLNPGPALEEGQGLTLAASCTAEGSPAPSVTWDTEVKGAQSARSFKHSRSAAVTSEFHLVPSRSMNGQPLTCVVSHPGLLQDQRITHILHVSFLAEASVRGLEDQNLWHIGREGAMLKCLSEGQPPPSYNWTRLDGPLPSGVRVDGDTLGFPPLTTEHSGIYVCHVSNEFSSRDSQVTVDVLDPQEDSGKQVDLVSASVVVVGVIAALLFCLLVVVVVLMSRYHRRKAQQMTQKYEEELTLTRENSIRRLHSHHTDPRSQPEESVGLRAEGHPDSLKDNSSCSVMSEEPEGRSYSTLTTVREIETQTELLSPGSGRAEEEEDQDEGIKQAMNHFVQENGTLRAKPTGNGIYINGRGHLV

T2: human Nectin-4 Mutant 4 (A72P/G73N/G75S) (Homo sapiens, UniProt Q96NY8, A72P/G73N/G75S)
T2 construct: expressed in transfected cells; host or cells: HEK293T
T2 sequence (Q96NY8 32-510 A72P/G73N/G75S): T1 sequence (Q96NY8 32-510 T190A/T191Q/S193A) with A41P, G42N, G44S, A159T, Q160T, A162S

T3: human Nectin-4 Mutant 1 (S58P/G59D/Q61A/N106D/P107A) (Homo sapiens, UniProt Q96NY8, G59D/N106D/P107A/Q61A/S58P)
T3 construct: expressed in transfected cells; host or cells: HEK293T
T3 sequence (Q96NY8 32-510 S58P/G59D/Q61A/N106D/P107A): T1 sequence (Q96NY8 32-510 T190A/T191Q/S193A) with S27P, G28D, Q30A, N75D, P76A, A159T, Q160T, A162S

T4: human Nectin-4 Mutant 9 (L150S/S152A/Q234R/I236S) (Homo sapiens, UniProt Q96NY8, I236S/L150S/Q234R/S152A)
T4 construct: expressed in transfected cells; host or cells: HEK293T
T4 sequence (Q96NY8 32-510 L150S/S152A/Q234R/I236S): T1 sequence (Q96NY8 32-510 T190A/T191Q/S193A) with L119S, S121A, A159T, Q160T, A162S, Q203R, I205S

B1: N41 (antibody, V domains shown)
VH: QVQLKQSGPGLVQPSQSLSITCTVSGFSLTNYGVHWVRQSPGKGLEWLGVIWSGGSTDYNAAFISRLSISKDTSKSQVFFKMNSLQADDTAIYYCARELIHAMDNWGQGTSVTVSS
VL: DIQMTQSPASLSVSVGETVTITCRASENIYSNLAWYQQKQGNSPQLLVFAATNLADGVPSRFSGSGSGTQYSLKINSLQSEDFGTYYCQHFWGTPTFGGGTKLEIK
B2: 5E7 (antibody, V domains shown)
VH: QVQLQQPGAELVKPGASVKLSCKASGYIFTSYWMHWVKQRPGQGLEWIGEIDPSDSYTNYNQKFKGKATLTLDKSSSTTYMQLSSLTSEDSAVYYCVRGYGNYGDYWGQGTTLTVSSASTKGP
VL: DVVMTQAAFSNPVTLGTSASISCRSSKSLLHSNGITYLYWYLQKPGQSPQLLIYQMSNLASGVPDRFSSSGSGTDFTLRISRVEAEDVGVYYCAQNLELPWTFGGGTKLEIKRTVAAP

Key:
Experiment in all cases: Epitope mapping using Nectin-4 point mutants
Assay type in all cases: binding
[1] = molecular target: T1, human Nectin-4 Mutant 8 (T190A/T191Q/S193A)
Source text: (§1) Combined with the published structures of the Nectin-4 domains, Nectin-4 mutations at surface exposed amino acids residues were designed. Nectin-4 domain structure was modelled based on Protein Data Bank reference: 4FRW (domains V et C1). Human Nectin-4 used was NCBI Reference Sequence: NP_112178.2, mouse Nectin-4 used was NCBI Reference Sequence: AAL79833.1, cynomolgus Nectin-4 used was NCBI Reference Sequence: XP_005541277.1, rat Nectin-4 used was NCBI Reference Sequence: NP_001102546.1. The cells expressing the Nectin-4 mutants are then be used for testing anti-Nectin-4 antibodies for loss of binding to different Nectin-4 mutants to identify antibodies that bind to the same site on Nectin-4. […] FIGS. 8A and 8B show different view of a molecular model of the human Nectin-4 protein, indicating the position of substituted residues in mutants 1, 2, 3, 4, 5, 6, 7, 8 and 9.
(§2) Nectin-4 mutants were generated by PCR. The sequences amplified were run on agarose gel and purified using the Macherey Nagel PCR Clean-Up Gel Extraction kit. The purified PCR products generated for each mutant were then ligated into an expression vector, with the ClonTech InFusion system. The vectors containing the mutated sequences were prepared as Miniprep and sequenced. After sequencing, the vectors containing the mutated sequences were prepared as Midiprep using the Promega PureYield™ Plasmid Midiprep System. HEK293T cells were grown in DMEM medium (Invitrogen), transfected with vectors using Invitrogen's Lipofectamine 2000 and incubated at 37° C. in a CO2 incubator for 48 hours prior to testing for transgene expression. The targeted amino acid mutations are shown in Table 13 below, listing the residue present in wild-type Nectin-4/position of residue/residue present in mutant Nectin-4, with position reference being to the Nectin-4 protein with leader peptide shown in SEQ ID NO: 1.
(§3) (+) means that antibodies-Nectin-4 association occurs.

[2] = molecular target: T2, human Nectin-4 Mutant 4 (A72P/G73N/G75S)
Source text: as §1, §2, §3

[3] = molecular target: T3, human Nectin-4 Mutant 1 (S58P/G59D/Q61A/N106D/P107A)
Source text: as §1, §2, §3

[4] = molecular target: T4, human Nectin-4 Mutant 9 (L150S/S152A/Q234R/I236S)
Source text: as §1, §2, §3

| Molecule | association with Mutant 8 [1] | association with Mutant 4 [2] | association with Mutant 1 [3] | association with Mutant 9 [4] |
| --- | --- | --- | --- | --- |
| B1 | + | + | − | + |
| B2 | + | + | + | + |
